According to the supplement of paper PMC9112550, “Optimization of the antimicrobial peptide Bac7 by deep mutational scanning” (BMC Biology, 2022):

System: Escherichia coli TOP10
Assay: shrunken log2 fold change of peptide-encoding DNA abundance (4.5 h post-induction vs induction); higher = less antimicrobial activity (less host growth inhibition)
Conditions: time post-induction: 4.5 h; library: site-saturation at positions 5, 18, 19, 20
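Also: peptides expressed intracellularly from a pBAD plasmid library in pooled LB shake-flask culture, induced with 0.3% L-arabinose, DNA abundance read by NGS, three biological replicates, DESeq2 with apeglm shrinkage.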

Sequence | shrunken log2 fold change
RRIRDRPPRLPRPRPRPSQIPRP | 0.016
RRIRMRPPRLPRPRPRPWTHPRP | -0.136
RRIRGRPPRLPRPRPRPRHQPRP | 0.026
RRIRGRPPRLPRPRPRPLSVPRP | 0.383
RRIRQRPPRLPRPRPRPFCSPRP | 0.036
RRIRSRPPRLPRPRPRPWHEPRP | -0.103
RRIRNRPPRLPRPRPRPKYDPRP | -0.624
RRIRDRPPRLPRPRPRPGMMPRP | 0.0672
RRIRTRPPRLPRPRPRPVVTPRP | 0.0483
RRIRGRPPRLPRPRPRPDNNPRP | 0.388
RRIRGRPPRLPRPRPRPGMMPRP | -0.0297
RRIRERPPRLPRPRPRPAIIPRP | -0.259
RRIRVRPPRLPRPRPRPSYMPRP | -1.16
RRIRWRPPRLPRPRPRPCFEPRP | -0.0254
